Experiment [1] deals with CXC chemokine receptor 4 (CXCR4) on THP-1 cells (UniProt P61073). As to the kind of experiment: cell-based or functional assay.
Experiment [2] deals with wild-type CXCL12-α (UniProt P48061). As to the kind of experiment: apparent Kd; method not given.
Experiment [3] has the same target. As to the kind of experiment: method not given; reference is unsulfated p38.

Chain of CXC chemokine receptor 4 (CXCR4) on THP-1 cells (P61073 whole entry): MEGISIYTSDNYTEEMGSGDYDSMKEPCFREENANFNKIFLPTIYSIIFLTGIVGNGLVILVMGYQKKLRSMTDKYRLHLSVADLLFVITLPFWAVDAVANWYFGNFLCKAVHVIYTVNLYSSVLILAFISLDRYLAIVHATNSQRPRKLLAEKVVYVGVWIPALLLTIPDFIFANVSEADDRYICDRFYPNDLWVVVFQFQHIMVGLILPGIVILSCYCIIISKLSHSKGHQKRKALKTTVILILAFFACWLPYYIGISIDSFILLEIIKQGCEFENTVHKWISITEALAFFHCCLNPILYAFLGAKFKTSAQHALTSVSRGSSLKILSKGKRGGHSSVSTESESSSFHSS

With “CXCL12-α E60A (from UniProt P48061 22-93) (ligand)”, in experiment [1], the EC50 (nM), CXCR4 activation, Ca2+-flux in THP-1 cells came out at 4.1 nM and the Fold Increase of EC50 over wild-type CXCL12-α turned out to be 1.1 fold.

As for “CXCL12-α E63A (from UniProt P48061 22-93) (ligand)”, in experiment [1], the EC50 (nM), CXCR4 activation, Ca2+-flux in THP-1 cells was found to be 3.7 nM and the Fold Increase of EC50 over wild-type CXCL12-α was 1 fold.

Take “CXCL12-α H25R (from UniProt P48061 22-93) (ligand)”: in experiment [1], the EC50 (nM), CXCR4 activation, Ca2+-flux in THP-1 cells came out at 5.1 nM and the Fold Increase of EC50 over wild-type CXCL12-α came out at 1.4 fold.

“CXCL12-α K27A (from UniProt P48061 22-93) (ligand)”: in experiment [1], the EC50 (nM), CXCR4 activation, Ca2+-flux in THP-1 cells was found to be 10.1 nM and the Fold Increase of EC50 over wild-type CXCL12-α worked out at 2.8 fold.

As to “CXCL12-α K27E (from UniProt P48061 22-93) (ligand)”, in experiment [1], the EC50 (nM), CXCR4 activation, Ca2+-flux in THP-1 cells is 16.8 nM and the Fold Increase of EC50 over wild-type CXCL12-α is 4.7 fold.

In experiment [1], “CXCL12-α K64A (from UniProt P48061 22-93) (ligand)” returned an EC50 (nM), CXCR4 activation, Ca2+-flux in THP-1 cells of 5 nM and a Fold Increase of EC50 over wild-type CXCL12-α of 1.4 fold.

In experiment [1], “CXCL12-α R20A (from UniProt P48061 22-93) (ligand)” yielded an EC50 (nM), CXCR4 activation, Ca2+-flux in THP-1 cells of 4.3 nM and a Fold Increase of EC50 over wild-type CXCL12-α of 1.2 fold.

With “CXCL12-α R41A (from UniProt P48061 22-93) (ligand)”, in experiment [1], the EC50 (nM), CXCR4 activation, Ca2+-flux in THP-1 cells came to 4.3 nM and the Fold Increase of EC50 over wild-type CXCL12-α was found to be 1.2 fold.

In experiment [1], “CXCL12-α R47A (from UniProt P48061 22-93) (ligand)” displayed an EC50 (nM), CXCR4 activation, Ca2+-flux in THP-1 cells of 14.1 nM and a Fold Increase of EC50 over wild-type CXCL12-α of 3.9 fold.

As to “CXCL12-α R47E (from UniProt P48061 22-93) (ligand)”, in experiment [1], the EC50 (nM), CXCR4 activation, Ca2+-flux in THP-1 cells was 654 nM and the Fold Increase of EC50 over wild-type CXCL12-α was 182 fold.

“CXCL12-α V39A (from UniProt P48061 22-93) (ligand)”: in experiment [1], the EC50 (nM), CXCR4 activation, Ca2+-flux in THP-1 cells worked out at 27.1 nM and the Fold Increase of EC50 over wild-type CXCL12-α is 7.5 fold.

As for “CXCL12-α V49A (from UniProt P48061 22-93) (ligand)”, in experiment [1], the EC50 (nM), CXCR4 activation, Ca2+-flux in THP-1 cells was 8.6 nM and the Fold Increase of EC50 over wild-type CXCL12-α turned out to be 2.4 fold.

Regarding “p38-sY3 (CXCR4 N-terminal peptide p38 with sulfotyrosine at positions 7, 12 and 21)”, in the experiment with wild-type CXCL12-α [2], the Kd came to 200 nM. The substance further showed a fold tighter binding than the unsulfated peptide (p38) in the experiment with wild-type CXCL12-α [3] of 20 fold.

For the origin of these results see patent US7923016.
